Columns and labels:
Settings in all cases: glycan lost
[1] = Western blot of thrombin-antithrombin complexes
[2] = Western blot of conditioned medium
[3] = chromogenic anti-FXa assay, recombinant protein
[4] = control: β antithrombin (Ala169)
[5] = control: wild type (Ser169 background)

Substance	other: protease inhibitory activity [1, 4]	expression_or_secretion [2, 4]	other: protease inhibitory activity, other: anti-FXa activity [3, 4]	other: protease inhibitory activity [1, 5]	expression_or_secretion [2, 5]	other: protease inhibitory activity, other: anti-FXa activity [3, 5]
antithrombin: His224 in β background	abolishes	decreases	abolishes			
antithrombin: p.Asn224His				no change	decreases	no change, 1.38 vs 1.39

Source: article PMC9283966
